Results as given in the supplement of paper PMC6755084.

These sequences were tested on F1*sub RNA substrate (template-directed ligation) (assay: fraction ligated after 30 min (ligated reads / total reads); higher = more ligase activity; sequences stand for … in GAGACCGCAACTGAAAAGTTGT…AGTTCTGCACGTAGAAGCAAAAGGC). Settings: 42 °C.
Method in brief: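 Oligo-pool templates of ligase ribozyme variants were PCR-amplified, T7-transcribed and gel-purified. Ligated and unligated bands were gel-separated, reverse transcribed with barcoded primers, and MiSeq-sequenced; core bases were filtered at quality ≥20. Fraction ligated per variant was ligated reads over total reads.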

First: TATCACTTGTCGTAAGACATTTGGATGGGTTG [2d275]
Second: TATCATTGCGTAAGACACTTGGATGGGTTGA [3d1165]
The fraction ligated of the first is higher: 0.828 for the first, 0.773 for the second.

Compared with “TATCACTTGTCGTAAGCATTTGGATGGGTTG [3d2127]”, TTCACTTGTCGTAAGACACTTGGTGGGTTGA [3d486] is lower in fraction ligated: 0.833 for the first, 0.00989 for the second.

First: TTCACTTGTCGTAAGACACTTGGAGGGTTGA [3d487]
Second: TATCACTTGCGAAGACACTTTGGATGGGTTA [3d1624]
The fraction ligated of the first is lower: 0.0171 for the first, 0.733 for the second.

First: TATCACTTGTCTAAGACACTTTATGGGTTGA [3d1885]
Second: TATACTTGTGTAAGACACTTGGATGGGTTGA [3d836]
The fraction ligated of the first is lower: 0.171 for the first, 0.756 for the second.

First: TATACTTGTCGTAAGACACTTTGGGGGTTGA [3d938]
Second: TATACTTGTCTAAGACACTTTGGAGGGTTGA [3d853]
The fraction ligated of the first is higher: 0.0526 for the first, 0.0271 for the second.

First: TATCACTGTCGTAAACACTTTGGATGGGTTG [3d1407]
Second: TATCCTTGTCTAAGACACTTGGATGGGTTGA [3d1022]
The fraction ligated of the first is higher: 0.83 for the first, 0.764 for the second.

Compared with “TATCACTTTCGTAAGCCTTTGGATGGGTTGA [3d1530]”, “TATCATTGTCGAAGACACTTTGGATGGTTGA [3d1211]” is lower in fraction ligated: 0.774 for the first, 0.21 for the second.

Compared with TTCATTTCGTAAGACACTTTGGATGGGTTGA [3d318], “TATCACTTGTCGTGACACTTTGGTGGGTTGA [3d1988]” is higher in fraction ligated: 0.104 for the first, 0.135 for the second.

Going from TACACTTGTCTAAGACCTTTGGATGGGTTGA [3d637] to “TATCACTTGTCGAAGACACTGGATGGGTTGA [3d1957]”, the fraction ligated rises from 0.0809 to 0.767.

Going from “TATCACTTTCGTAGACCTTTGGATGGGTTGA [3d1510]” to ATCATTGCGTAAGACACTTTGGATGGGTTGA [3d88], the fraction ligated falls from 0.78 to 0.755.

First: TACACTTTCGTAAGACACTTTGGATGGTTGA [3d598]
Second: TATCACTTTCGTAGACACTTTGGATGGTTGA [3d1516]
The fraction ligated of the first is lower: 0.0486 for the first, 0.0829 for the second.

First: TATCATTGTCGTAGAACTTTGGATGGGTTGA [3d1217]
Second: TATATTGTCGTAAGACACTTTGGATGGGTTA [3d775]
The fraction ligated of the first is higher: 0.864 for the first, 0.0168 for the second.

Compared with TATACTTGTCGTAGACCTTTGGATGGGTTGA [3d874], “TATCATTGCGTAAGACACTTTGGATGGGTTGA [2d111]” is higher in fraction ligated: 0.616 for the first, 0.819 for the second.

First: TATATTGTCGTAAGACATTTGGATGGGTTGA [3d769]
Second: TATCACGTCGTAAGACCTTTGGATGGGTTGA [3d1302]
The fraction ligated of the first is lower: 0.632 for the first, 0.786 for the second.

First: TTCACTTGTCGAGACACTTTGGATGGGTTGA [3d416]
Second: TACACTTGTCGTAAGACACTTGATGGGTTGA [3d715]
The fraction ligated of the first is higher: 0.206 for the first, 0.0512 for the second.

First: TTCCTTGTCGTAAGCACTTTGGATGGGTTGA [3d306]
Second: TATCACTGTCGAAGCACTTTGGATGGGTTGA [3d1374]
The fraction ligated of the first is lower: 0.772 for the first, 0.826 for the second.

Going from “TATCACTTGCGTAAGAACTTTGGATGGTTGA [3d1664]” to ATCATTGTCGTAAGACACTTGGATGGGTTGA [3d98], the fraction ligated rises from 0.0836 to 0.726.

Compared with “TATCACTTGTCTAAGACACTTGGATGGGTTA [3d1883]”, TTCACTTGTGTAAGACACTTTGGATGGGTTA [3d400] is lower in fraction ligated: 0.701 for the first, 0.132 for the second.

Compared with TACACTTGTCGTAAGACACTTTGATGGGTTG [3d726], “TATCACTTGTCGTAAAATTTGGATGGGTTGA [3d2059]” is higher in fraction ligated: 0.0988 for the first, 0.803 for the second.

Compared with TATCCTTTCGTAAGACACTTTGGAGGGTTGA [3d980], ATCACTTGTCGTAGCACTTTGGATGGGTTGA [3d200] is higher in fraction ligated: 0.0203 for the first, 0.749 for the second.

Compared with TTCACTTGTCGTAAGACACTTTGGTGGGTTG [3d500], “TATCACTTGGTAAGACACTTTGGATGGGTTA [3d1597]” is higher in fraction ligated: 0.0269 for the first, 0.733 for the second.

Compared with ATCACTTCGTAAGACACTTTGGATGGGTTGA [3d106], “TATCACTTGTCTAAACACTTTGATGGGTTGA [3d1840]” is lower in fraction ligated: 0.761 for the first, 0.753 for the second.

Compared with “TATCACTGTCGAGACACTTTGGATGGGTTGA [3d1372]”, “TATCACTTTCGTAAACACTTGGATGGGTTGA [3d1522]” is lower in fraction ligated: 0.826 for the first, 0.778 for the second.

Going from “TATCACTTGTCGAAGACACTTTGGATGGGTTA [2d219]” to TTCACTTGTCGTAAGACATTTGGTGGGTTGA [3d479], the fraction ligated falls from 0.803 to 0.0115.

Compared with ATCACGTCGTAAGACACTTTGGATGGGTTGA [3d105], “TATCACTTGTCGTAAGCACTTTGGATGGTTGA [2d251]” is lower in fraction ligated: 0.749 for the first, 0.216 for the second.

First: TATACTTTCGTAAGCACTTTGGATGGGTTGA [3d801]
Second: TATCCTTGTCGTAGACACTTTGATGGGTTGA [3d1049]
The fraction ligated of the first is lower: 0.539 for the first, 0.804 for the second.

First: TATCACTTGCGTAAGACACTTTGGGGGTTGA [3d1694]
Second: TATCACTTTCGTAAGACACTTGGTGGGTTGA [3d1563]
The fraction ligated of the first is lower: 0.122 for the first, 0.171 for the second.

Compared with “TATCACTTGTCGTAAGAACTTGGATGGTTGA [3d2163]”, TCATTGTCGTAAGACACTTTGGATGGGTTGA [3d4] is higher in fraction ligated: 0.0536 for the first, 0.164 for the second.

First: TATCACTTGTCGAAACACTTGGATGGGTTGA [3d1918]
Second: TTCACTTGTCGTAAGACATTTGATGGGTTGA [3d478]
The fraction ligated of the first is higher: 0.776 for the first, 0.0347 for the second.

First: TATTTGTCGTAAGACACTTTGGATGGGTTGA [3d738]
Second: TTCACTTGTCGTAAACACTTTGATGGGTTGA [3d446]
The fraction ligated of the first is higher: 0.762 for the first, 0.0177 for the second.

Going from ATCACTTGTCGAAGACATTTGGATGGGTTGA [3d190] to ATCATTGTCGTAAGACATTTGGATGGGTTGA [3d97], the fraction ligated falls from 0.762 to 0.729.

Compared with “TATCATTGTCGAAACACTTTGGATGGGTTGA [3d1202]”, “TATCACTGTGTAAGACACTTTGGATGGGTTG [3d1357]” is higher in fraction ligated: 0.81 for the first, 0.843 for the second.

First: TATCACTTGTCGTAAGACACTGGATGGTTGA [3d2235]
Second: TATCACTTGTCGTAAACACTTTGGATGGGTTA [2d242]
The fraction ligated of the first is lower: 0.0538 for the first, 0.77 for the second.

Compared with TACCTTGTCTAAGACACTTTGGATGGGTTGA [3d532], “TATCACTTGCGTAACACTTTGGATGGGTTGA [3d1627]” is higher in fraction ligated: 0.685 for the first, 0.786 for the second.

Compared with “TATCACTTGTCGTAAGACACTTTGGTGGGTTG [2d292]”, TACACTTGTCGTAAGACATTTGATGGGTTGA [3d708] is lower in fraction ligated: 0.0944 for the first, 0.0186 for the second.

First: TACACTTGTCGTAAGCATTTGGATGGGTTGA [3d684]
Second: TATCACTGTGTAAGACACTTTGGAGGGTTGA [3d1354]
The fraction ligated of the first is higher: 0.453 for the first, 0.0274 for the second.

Compared with ATACTTGTCGTAAGACACTTTGATGGGTTGA [3d61], “TATCACTTTCGTAAGACACTTTGGATGGTTG [3d1582]” is lower in fraction ligated: 0.291 for the first, 0.0551 for the second.

Going from “TATCACTTTCGTAAGACATTTGATGGGTTGA [3d1555]” to “TATCACTTTGTAAGACACTTTGATGGGTTGA [3d1473]”, the fraction ligated rises from 0.768 to 0.793.

Compared with ATCACTGTCGTAAGACACTTGGATGGGTTGA [3d117], “TATCATTGTCGTAGCACTTTGGATGGGTTGA [3d1216]” is higher in fraction ligated: 0.743 for the first, 0.814 for the second.

First: TTCACTTGTCGTAAGACACTTTGGTGGGTTGA [2d42]
Second: TATCCTTGTCGTAAGCCTTTGGATGGGTTGA [3d1066]
The fraction ligated of the first is lower: 0.0345 for the first, 0.75 for the second.

Compared with TTCACTGTCGTAAACACTTTGGATGGGTTGA [3d343], TTCACTTTGTAAGACACTTTGGATGGGTTGA [3d355] is lower in fraction ligated: 0.8 for the first, 0.747 for the second.

Compared with “TATCCTTGTCGTAAACACTTTGATGGGTTGA [3d1059]”, “TATCACTTGTGTAAGAACTTTGGAGGGTTGA [3d1768]” is lower in fraction ligated: 0.758 for the first, 0.0385 for the second.

Going from “TATCACTTGGTAAGACACTTGGATGGGTTGA [3d1592]” to ATCATTGTCGTAAGACACTTTGGATGGGTTG [3d104], the fraction ligated falls from 0.795 to 0.703.

Going from TACACTTGTCGTAGACACTTGGATGGGTTGA [3d665] to “TATCACTTGTCGTAAGACACTTGAGGGTTGA [3d2240]”, the fraction ligated falls from 0.101 to 0.00563.

Compared with “TATCATTGCGAAGACACTTTGGATGGGTTGA [3d1158]”, TACACTTGTCGTAAACACTTGGATGGGTTGA [3d675] is lower in fraction ligated: 0.8 for the first, 0.0236 for the second.

Going from “TATCACTGTCGTAAGCCTTTGGATGGGTTGA [3d1409]” to TATATTGTCGAAGACACTTTGGATGGGTTGA [3d763], the fraction ligated falls from 0.815 to 0.376.

Compared with ATCACTTGTCTAAGCACTTTGGATGGGTTGA [3d174], “TATCATGTCGTAAGACATTTGGATGGGTTGA [3d1132]” is higher in fraction ligated: 0.733 for the first, 0.801 for the second.

Compared with “TATCACTGTCGTAAGACACTTTGAGGGTTGA [3d1449]”, “TATCCTTGTCGTAAGACACTTTGGATGGGTTG [2d108]” is higher in fraction ligated: 0.0155 for the first, 0.781 for the second.

First: TATCACTTGTCGAAGACCTTTGGTGGGTTGA [3d1945]
Second: TATCACTTGTCGTAAACATTTGATGGGTTGA [3d2075]
The fraction ligated of the first is lower: 0.218 for the first, 0.384 for the second.

First: TATCACTTGTCGTAAGACTTTGGAGGGTTGA [3d2110]
Second: TATCACTGTCGTAAAACTTTGGATGGGTTGA [3d1398]
The fraction ligated of the first is lower: 0.0282 for the first, 0.842 for the second.

Going from “TATCACTTGTCTAAGACACTTTGGGGGTTGA [3d1891]” to “TATCACTTGTCGAAGACACTTTGGATGGGTTG [2d220]”, the fraction ligated rises from 0.118 to 0.856.

Going from ATCACTTGTCGTAAGACACTTTGGTGGGTTA [3d268] to TACACTTGTCGTAAGACATTTGGATGGTTGA [3d711], the fraction ligated rises from 0.00829 to 0.113.

Going from ATCACTTGTCGTAAGACCTTTGGATGGGTTG [3d245] to TATCCTTGCGTAAGACCTTTGGATGGGTTGA [3d991], the fraction ligated rises from 0.706 to 0.792.

First: TATCATTGTCGAAGACACTTTGGATGGGTTG [3d1213]
Second: TTCACTTGTCGTAAGCCTTTGGATGGGTTGA [3d453]
The fraction ligated of the first is higher: 0.796 for the first, 0.525 for the second.

Compared with TACACTTGTCGTAGACACTTTGGATGGGTTG [3d671], “TATCACTTGCGTAAGACCTTGGATGGGTTGA [3d1667]” is higher in fraction ligated: 0.514 for the first, 0.797 for the second.

Compared with “TATCACTTGCGAAGACACTTTGGATGGTTGA [3d1623]”, ATCACTTTCGTAAGACACTTTGATGGGTTGA [3d134] is higher in fraction ligated: 0.248 for the first, 0.401 for the second.
